From patent publication US20220251215A1 (Regeneron, published 2022)

What was measured:
[1] = target: T1, HLA-A2 on T2 cells pulsed with NY-ESO-1:157-165, wt peptide (C165) (human); test: flow cytometry, peptide-pulsed T2 cells
T1 construct: also called T2 Pulsed NY-ESO-1_157-165

[2] = target: T2, monomeric HLA-A2:NY-ESO-1(156-165) (V at position 165) peptide complex, 2906; test: SPR, 25 C, antibody captured, monomeric complex injected;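 also: antibody held on sensor chip via immobilized anti-human or anti-mouse Fc antibody, rate constants derived by fitting sensorgrams to a 1:1 binding model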
T2 construct: also called soluble HLA-A2:NY-ESO-1 peptide complex

[3] = target: T2, monomeric HLA-A2:NY-ESO-1(156-165) (V …); test: SPR, 37 C, antibody captured, monomeric complex injected
[4] = target: T1, HLA-A2 on T2 cells pulsed with …; test: flow cytometry, 10 ug/ml, pulsed T2 cells
[5] = target: HLA-A2 on T2 cells pulsed with ITCH (807-815) peptide (human); test: flow cytometry, 10 ug/ml, pulsed T2 cells
[6] = target: HLA-A2 on T2 cells pulsed with BCL9L: 1351-1359 peptide (human); test: flow cytometry, 10 ug/ml, pulsed T2 cells
[7] = target: HLA-A2 on T2 cells pulsed with ZDHHC1 (376-384) peptide (human); test: flow cytometry, 10 ug/ml, pulsed T2 cells
[8] = target: HLA-A2 on T2 cells pulsed with GRID1: 7-15 peptide (human); test: flow cytometry, 10 ug/ml, pulsed T2 cells
[9] = target: HLA-A2 on T2 cells pulsed with EARS2: 306-314 peptide (human); test: flow cytometry, 10 ug/ml, pulsed T2 cells
[10] = target: HLA-A2 on T2 cells pulsed with MAGEH1: 90-98 peptide (human); test: flow cytometry, 10 ug/ml, pulsed T2 cells
[11] = target: HLA-A2 on T2 cells pulsed with FBXL22: 4-12 peptide (human); test: flow cytometry, 10 ug/ml, pulsed T2 cells
[12] = target: HLA-A2 on T2 cells pulsed with URB1: 1853-1861 peptide (human); test: flow cytometry, 10 ug/ml, pulsed T2 cells

- EC50 [1]: 320 pM
- Kd [2]: 160 pM
- koff [2]: 0.000185 s⁻¹
- kon [2]: 1.16e+06 M⁻¹ s⁻¹
- t½ [2]: 62.5 min
- Kd [3]: 293 pM
- koff [3]: 0.000441 s⁻¹
- kon [3]: 1.5e+06 M⁻¹ s⁻¹
- t½ [3]: 26.2 min
- ratio of MFI, pulsed to unpulsed [4]: 138 ratio
- ratio of MFI, pulsed to unpulsed [5]: 1 ratio
- ratio of MFI, pulsed to unpulsed [6]: 3 ratio
- ratio of MFI, pulsed to unpulsed [7]: 1.6 ratio
- ratio of MFI, pulsed to unpulsed [8]: 1.6 ratio
- ratio of MFI, pulsed to unpulsed [9]: 0.6 ratio
- ratio of MFI, pulsed to unpulsed [10]: 0.5 ratio
- ratio of MFI, pulsed to unpulsed [11]: 1.3 ratio
- ratio of MFI, pulsed to unpulsed [12]: 0.6 ratio
B1: mAb28128P (antibody, human IgG4 S228P, kappa, V domains shown)
VH: EVQLVESGGGVVQPGGSLRLSCAASGFIFDDYAMHWVRQVPGKGLEWISLSSGGGGGTYYADPVKGRFTISRDNSKNSLHLQMNSLRAEDTASYYCAKDMVFGVVTPDFFFAMDVWGQGTTVTVSS
VL: DIQMTQSPSSLSASVGDRVTITCRASQSISTYLNWYQQKPGKAPKLLIYGASSLQRGVPSRFSGSGSGTDFTLTISSLQPEDFATYYCQQTYSTPPITFGQGTRLEIKR
